Source: patent US20140243272A1 (ALPHABETA, published 2014)

B1: cellulose-bound decamer of Y (peptide)
peptide: YYYYYYYYYY
notes: also called stretch of Y
B2: AAAAAAAAAA, poly-alanine 10-mer peptide, spot 18 (peptide)
peptide: AAAAAAAAAA
notes: also called decamer of A
B3: cellulose-bound decamer of M (peptide)
peptide: MMMMMMMMMM
notes: also called stretch of M
B4: cellulose-bound decamer of F (peptide)
peptide: FFFFFFFFFF
notes: also called stretch of F
B5: Recombinant human CTproSP-CBrichos (human proSP-C^94-197), S-tagged (other)
chain: FSIGSTGLVVYDYQQLLIAYKPAPGTCCYIMKIAPESIPSLEALNRKVHNFQMECSLQAKPAVPTSKLGQAEGRDAGSAPSGGDPAFLGMAVNTLCGEVPLYYI
notes: also called Brichos domain of human CTproSP-C; Brichos region; not shown: S-tag and vector residues from pET-32c left after thrombin cleavage
B6: Recombinant human CTproSP-C^L188Q, S-tagged (other)
chain: HMSQKHTEMVLEMSIGAPEAQQRLALSEHLVTTATFSIGSTGLVVYDYQQLLIAYKPAPGTCCYIMKIAPESIPSLEALNRKVHNFQMECSLQAKPAVPTSKLGQAEGRDAGSAPSGGDPAFLGMAVNTQCGEVPLYYI
notes: also called mutant human CTproSP-C^L188Q; not shown: S-tag left after thrombin cleavage
B7: S-tagged recombinant human CTproSP-C (proSP-C^59-197) (other)
chain: GSGMKETAAAKFERQHMDSPDLGTDDDDKAMAHMSQKHTEMVLEMSIGAPEAQQRLALSEHLVTTATFSIGSTGLVVYDYQQLLIAYKPAPGTCCYIMKIAPESIPSLEALTRKVHNFQMECSLQAKPAVPTSKLGQAEGRDAGSAPSGGDPAFLGMAVSTLCGEVPLYYI
notes: SEC and ESI-MS show mainly trimers and oligomers of trimers; also called CTC; C-terminal domain of lung surfactant protein C precursor
B8: cellulose-bound decamer of G (peptide)
peptide: GGGGGGGGGG
notes: also called G counterpart
B9: cellulose-bound decamer of P (peptide)
peptide: PPPPPPPPPP
notes: also called P counterpart
B10: LLLLLLLLLL, poly-leucine 10-mer peptide, spot 17 (peptide)
peptide: LLLLLLLLLL
notes: also called decamer of L
B11: cellulose-bound decamer of I (peptide)
peptide: IIIIIIIIII
notes: also called stretch of I
B12: cellulose-bound decamer of W (peptide)
peptide: WWWWWWWWWW
notes: also called W counterpart

Tests used:
[1] = target: T1, ER-luminal part of the human Bri protein (human, UniProt Q9Y287 90-236, limits assumed); test: cellulose-bound decamer SPOT membrane, control
T1 construct: domain: ER-luminal part
T1 sequence (looked up): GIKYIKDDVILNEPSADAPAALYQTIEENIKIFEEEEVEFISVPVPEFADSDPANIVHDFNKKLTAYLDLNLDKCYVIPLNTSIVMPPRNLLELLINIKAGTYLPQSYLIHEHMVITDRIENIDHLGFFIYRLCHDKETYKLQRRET
Description: (§1) After blocking with 2% BSA for one hour and washing with T-TBS 4×1 h, the membranes were incubated with HRP-conjugated S-protein (Novagen, Madison, Wis.) diluted 1:5000.

[2] = target: B10; test: cellulose-bound decamer SPOT membrane
Description: as §1

[3] = target: B11; test: cellulose-bound decamer SPOT membrane
Description: as §1

[4] = target: B4; test: cellulose-bound decamer SPOT membrane
Description: as §1

[5] = target: B3; test: cellulose-bound decamer SPOT membrane
Description: as §1

[6] = target: B1; test: cellulose-bound decamer SPOT membrane
Description: as §1

[7] = target: T2, LVVVVIVGAL (positions 22-31 in SP-C^I23V), spots 21 and 23 (human); test: peptide SPOT membrane, S-protein-HRP, ECL
T2 construct: also called spot 21; spot 23
T2 peptide: LVVVVIVGAL
Description: (§2) SPOT membranes (Frank R, J Immunol Meth, 267:13-26, 2002), containing 10-residue fragments derived from SP-C(SP-C^I23V) were purchased from Sigma Genosys (Cambridge, England). […] The membranes were then blocked with 2% BSA in TBS for one hour. After washing with T-TBS 4×1 h, the membranes were incubated with HRP-conjugated S-protein (Novagen, Madison, Wis.) diluted 1:5000 in T-TBS containing 2% BSA. The membranes were then washed again with T-TBS 4×1 h and binding was visualized by ECL according to the manufacturer's instructions.

[8] = target: B10; test: cellulose-bound decamer SPOT membrane, control
Description: as §1

[9] = target: B2; test: cellulose-bound decamer SPOT membrane, control
Description: as §1

[10] = target: B11; test: cellulose-bound decamer SPOT membrane, control
Description: as §1

[11] = target: B4; test: cellulose-bound decamer SPOT membrane, control
Description: as §1

[12] = target: B3; test: cellulose-bound decamer SPOT membrane, control
Description: as §1

[13] = target: B1; test: cellulose-bound decamer SPOT membrane, control
Description: as §1

[14] = target: B12; test: cellulose-bound decamer SPOT membrane, control
Description: as §1

[15] = target: B8; test: cellulose-bound decamer SPOT membrane, control
Description: as §1

[16] = target: B9; test: cellulose-bound decamer SPOT membrane, control
Description: as §1

[17] = target: T3, KRLLLLLLLL, Leu-substituted version of SP-C 11-20, spot 8 (human); test: peptide SPOT membrane, spot 8
T3 peptide: KRLLLLLLLL
Description: as §2

[18] = target: T4, RLLLLLLLLL, Leu-substituted version of SP-C 12-21, spot 11 (human); test: peptide SPOT membrane, spot 11
T4 peptide: RLLLLLLLLL
Description: as §2

[19] = target: T5, KRAAAAAAAA, Ala-substituted version of SP-C 11-20, spot 9 (human); test: peptide SPOT membrane, S-protein-HRP, ECL
T5 peptide: KRAAAAAAAA
Description: as §2

[20] = target: T6, RAAAAAAAAA, Ala-substituted version of SP-C 12-21, spot 12 (human); test: peptide SPOT membrane, S-protein-HRP, ECL
T6 peptide: RAAAAAAAAA
Description: as §2

[21] = target: B2; test: peptide SPOT membrane, S-protein-HRP, ECL
Description: as §2

[22] = target: B12; test: cellulose-bound decamer SPOT membrane, S-protein-HRP, ECL
Description: as §1

[23] = target: B8; test: as above
Description: as §1

[24] = target: B9; test: as above
Description: as §1

[25] = target: B10; test: cellulose-bound decamer SPOT membrane, 1 µg/ml protein, S-protein-HRP, ECL
Description: as §1

[26] = target: B11; test: as above
Description: as §1

[27] = target: B4; test: as above
Description: as §1

[28] = target: B3; test: as above
Description: as §1

[29] = target: B1; test: as above
Description: as §1

B1
binding result [1]: no binding

B2
binding result [1]: no binding

B3
binding result [1]: no binding

B4
binding result [1]: no binding

B5
binding result [2]: binds | binding result [3]: binds | binding result [4]: binds | binding result [5]: binds | binding result [6]: binds

B6
binding result [7]: no binding (tested: 1 µg/ml) | binding result [8]: no binding | binding result [9]: no binding | binding result [10]: no binding | binding result [11]: no binding | binding result [12]: no binding | binding result [13]: no binding | binding result [14]: no binding | binding result [15]: no binding | binding result [16]: no binding

B7
binding result [17]: binds | binding result [18]: binds | binding result [19]: no binding (tested: 1 µg/ml) | binding result [20]: no binding (tested: 1 µg/ml) | binding result [21]: no binding (tested: 1 µg/ml) | binding result [22]: no binding (tested: 1 µg/ml) | binding result [23]: no binding (tested: 1 µg/ml) | binding result [24]: no binding (tested: 1 µg/ml) | binding result [25]: binds | binding result [26]: binds | binding result [27]: binds | binding result [28]: binds | binding result [29]: binds

B8
binding result [1]: no binding

B9
binding result [1]: no binding

B10
binding result [1]: no binding

B11
binding result [1]: no binding

B12
binding result [1]: no binding
